B1: p55-sf2 TNF receptor/IgG1 fusion protein (Fc fusion)
chain: QVCPQGKYIHPQNNSICCTKCHKGTYLYNDCPGPGQDTDCRECESGSFTASENHLRHCLSCSKCRKEMGQVEISSCTVDRDTVCGCRKNQYRHYWSENLFQCFNCSLCLNGTVHLSCQEKQNTVCTCHAGFFLRENECVSCSNCKKSLECTKLCLPQIPGTLVTVSS
B2: p75P-sf2 TNF receptor/IgG1 fusion protein (Fc fusion)
chain: QLPAQVAFTPYAPEPGSTCRLREYYDQTAQMCCSKCSPGQHAKVFCTKTSDTVCDSCEDSTYTQLWNWVPECLSCGSRCSSDQVETQACTREQNRICTCRPGWYCALSKQEGCRLCAPLRKCRPGFGVARPGTETSDVVCKPCAPGTFSNTTSSTDICRPHQICNVVAIPGNASMDAVCTSTSGTLVTVSS

Molecular target: human tumor necrosis factor-alpha (hTNFα) (human, UniProt P01375 77-233)
Test: cell-based or functional assay

Sequence of human tumor necrosis factor-alpha (hTNFα) (P01375 77-233): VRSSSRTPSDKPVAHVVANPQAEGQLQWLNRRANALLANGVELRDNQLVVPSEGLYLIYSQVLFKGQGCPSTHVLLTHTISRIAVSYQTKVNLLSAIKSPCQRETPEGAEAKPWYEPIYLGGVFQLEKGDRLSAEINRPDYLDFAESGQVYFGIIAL

| Binder | IC50: concentration of fusion protein required to inhibit 2 ng/ml (39.2 pM) TNFα by 50%, WEHI 164 cytotoxicity assay [pM] |
| --- | --- |
| B1 | 70 |
| B2 | 70 |

Source: patent US20060140946A1 (published 2006)
